The target of this assay is T1, H3 protein ectodomain from vaccinia virus strain Lister with C-terminal 6-HIS tag, expressed from pET21a(+) (vaccinia virus strain Lister, UniProt P20497 1-269).
T1 chain: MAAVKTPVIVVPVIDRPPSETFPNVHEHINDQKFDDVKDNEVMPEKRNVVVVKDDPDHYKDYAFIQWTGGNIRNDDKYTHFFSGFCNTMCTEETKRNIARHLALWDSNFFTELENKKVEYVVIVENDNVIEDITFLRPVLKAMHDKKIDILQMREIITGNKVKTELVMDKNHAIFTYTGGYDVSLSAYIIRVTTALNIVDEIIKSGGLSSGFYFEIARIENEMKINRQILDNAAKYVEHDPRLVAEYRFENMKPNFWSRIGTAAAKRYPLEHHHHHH
Description: Western blot on E. coli lysates (FIG. 12A).

B1: 130D67 human anti-H3L monoclonal antibody (antibody, V domains shown)
VH: EVQLVESGGGLVQPGRSLRLSCAASGFTFDDYAIHWVRQAPGKGLEWVSGISWNGRSIGYADSVKGRFTISRDNAKNSLYLQMNSLRAEDTALYYCAKDIGFYGSGSLDYWGQGTLVTVSS
VL: not shown
On to B1, for which the binding result is recorded as “binds”.

The record behind these values is patent US20140186370A1 (Kyowa Kirin, published 2014).
